Test [1] has as its target PlpD I117C with an N-terminal TwinStrepII tag (P. aeruginosa (strain PA14)) (UniProt Q9HYQ6). The test can be described thus: cross-linking; in vivo disulfide-bond formation: cysteine mutants expressed in P. aeruginosa SEH88; intact cells in ice-cold PBS with 0.2 mM 4-DPS (or ethanol, mock) for 30 min; TCA precipitation, SDS-PAGE, immunoblot with the anti-PlpD C-terminal peptide antiserum. On the technique in general: A western blot detects proteins with antibodies after separation by electrophoresis.

Test [2] addresses PlpD I532C with an N-terminal TwinStrepII tag (P. aeruginosa (strain PA14)) (UniProt Q9HYQ6). The test is described as follows: cross-linking; in vivo disulfide-bond formation, time course: cells in ice-cold PBS with 0.2 mM 4-DPS for 0, 2, 5, 15, 30, 60, 90 and 120 min; immunoblot with the anti-PlpD C-terminal peptide antiserum.
Test [3] shares this target. The test can be described thus: cross-linking; in vivo disulfide-bond formation: cysteine mutants expressed in P. aeruginosa SEH88; intact cells in ice-cold PBS with 0.2 mM 4-DPS (or ethanol, mock) for 30 min; TCA precipitation, SDS-PAGE, immunoblot with the anti-PlpD C-terminal peptide antiserum.
The target of test [4] is PlpD M249C with an N-terminal TwinStrepII tag (P. aeruginosa (strain PA14)) (UniProt Q9HYQ6). The test is described as follows: cross-linking; in vivo disulfide-bond formation, time course: cells in ice-cold PBS with 0.2 mM 4-DPS for 0, 2, 5, 15, 30, 60, 90 and 120 min; immunoblot with the anti-PlpD C-terminal peptide antiserum.
For test [5] the target is unchanged. The test can be described thus: cross-linking; in vivo disulfide-bond formation: cysteine mutants expressed in P. aeruginosa SEH88; intact cells in ice-cold PBS with 0.2 mM 4-DPS (or ethanol, mock) for 30 min; TCA precipitation, SDS-PAGE, immunoblot with the anti-PlpD C-terminal peptide antiserum.
Test [6] deals with PlpD S118C with an N-terminal TwinStrepII tag (P. aeruginosa (strain PA14)) (UniProt Q9HYQ6). The description is as above.
Test [7] deals with PlpD V113C with an N-terminal TwinStrepII tag (P. aeruginosa (strain PA14)) (UniProt Q9HYQ6). The test is described as above.

As for “PlpD I117C with an N-terminal TwinStrepII tag (from UniProt Q9HYQ6 1-728) (natural protein)”, the percent intermolecular disulfide bond formation in test [1] worked out at 84%.
Broadly, the stoichiometry N is a count of units in the complex or per binding partner. In test [2], “PlpD I532C with an N-terminal TwinStrepII tag (from UniProt Q9HYQ6 1-728) (natural protein)” yielded a percent intermolecular disulfide bonding, peak of the time course of 63%. In test [3], this substance showed a percent of PlpD in intermolecular disulfide-bonded form (30 min 4-DPS) of 65% and a stoichiometry N of 2.
“PlpD M249C with an N-terminal TwinStrepII tag (from UniProt Q9HYQ6 1-728) (natural protein)”: in test [4], the percent intermolecular disulfide bonding, plateau of the time course (60-90 min) amounted to 91.5%. Moreover, in test [5], the percent of PlpD in intermolecular disulfide-bonded form (30 min 4-DPS) came out at 65% and the stoichiometry N is 2.
“PlpD S118C with an N-terminal TwinStrepII tag (from UniProt Q9HYQ6 1-728) (natural protein)” gave a percent intermolecular disulfide bond formation in test [6] of 84%.
“PlpD V113C with an N-terminal TwinStrepII tag (from UniProt Q9HYQ6 1-728) (natural protein)”: the percent intermolecular disulfide bond formation in test [7] is 84%.
